This passage reports Kd results from US20230355708A1 (published 2023).

One may read the Kd as a measure of binding affinity in units of concentration. Higher therefore signals lower affinity.

In assay [1] the target is Yu2 gp120. In words: SPR.
In assay [2] the target is Yu2 gp120. In words: SPR. The source holds these as a separate data set. On the technique in general: Surface plasmon resonance follows binding to a sensor surface in real time, without labels.

Where two headings read alike, the source gives them in different places.

B1: CVN (other)
chain: LGKFSQTCYNSAIQGSVLTSTCERTNGGYNTSSIDLNSVIENVDGSLKWQPSNFIETCRNTQLAGSSELAAECKTRAQQFVSTKINLDDHIANIDGTLKYE
With B1, the Kd with Yu2 gp120 [1] and with Yu2 gp120 [2] was 0.622 nM in each case.
